For two molecules, IC50 results are on record in patent US20030220285A1.

Assay [1] has as its target purified HLA-A11 molecules (human).
For assay [2], the target named is purified HLA-A2.1 molecules (human). The following applies: remark: other sources report otherwise.

Broadly, the IC50 is the concentration at which inhibition is half-maximal. A low value points to higher potency. In turn, TVYYGVPVWK (modifications not checked) [HIV Env 49 (HIV env 49-58) peptide …] gave an IC50 in assay [1] of 4 nM.
Turning to WLSLLVPFV (modifications not checked) [HBV Env 335 (HBV env 335-343) peptide …], the IC50 in assay [2] was 5 nM.
